Measured values reported in PMC11457148.

Biological target: Isu1 (mature, residues 36-165) with the C-terminal His tag (S. cerevisiae) (UniProt Q03020)
Experiment: native MS

B1: Hsc20 without tag, co-expressed with Isu1 and Ssq1* (natural protein)
chain: TSTFYELFPKTFPKKLPIWTIDQSRLRKEYRQLQAQHHPDMAQQGSEQSSTLNQAYHTLKDPLRRSQYMLKLLRNIDLTQEQTSNEVTTSDPQLLLKVLDIHDELSQMDDEAGVKLLEKQNKERIQDIEAQLGQCYNDKDYAAAVKLTVELKYWYNLAKAFKDWAPGKQLEMNH
- stoichiometry N: 1
